Measurements taken from the supplement of paper PMC9112550, “Optimization of the antimicrobial peptide Bac7 by deep mutational scanning” (BMC Biology, 2022).

System: Escherichia coli TOP10
Test: shrunken log2 fold change of peptide-encoding DNA abundance (4.5 h post-induction vs induction); higher = less antimicrobial activity (less host growth inhibition)
Settings: time post-induction: 4.5 h; library: site-saturation at positions 5, 18, 19, 20
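Note: peptides expressed intracellularly from a pBAD plasmid library in pooled LB shake-flask culture, induced with 0.3% L-arabinose, DNA abundance read by NGS, three biological replicates, DESeq2 with apeglm shrinkage.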

Sequence | shrunken log2 fold change
RRIRSRPPRLPRPRPRPEFGPRP | 0.358
RRIRSRPPRLPRPRPRPEFNPRP | 0.24
RRIRSRPPRLPRPRPRPEGEPRP | 0.809
RRIRSRPPRLPRPRPRPEHGPRP | -0.0838
RRIRSRPPRLPRPRPRPEHVPRP | -0.191
RRIRSRPPRLPRPRPRPEIEPRP | 0.0942
RRIRSRPPRLPRPRPRPEIPPRP | 2.86
RRIRSRPPRLPRPRPRPEMIPRP | 0.0158
RRIRSRPPRLPRPRPRPEMNPRP | 0.0588
RRIRSRPPRLPRPRPRPEMYPRP | -0.0223
RRIRSRPPRLPRPRPRPENEPRP | -0.0857
RRIRSRPPRLPRPRPRPEPAPRP | 0.912
RRIRSRPPRLPRPRPRPEQAPRP | 0.289
RRIRSRPPRLPRPRPRPEQGPRP | 0.0683
RRIRSRPPRLPRPRPRPEQWPRP | 0.172
RRIRSRPPRLPRPRPRPERHPRP | 0.0386
RRIRSRPPRLPRPRPRPETEPRP | 0.997
RRIRSRPPRLPRPRPRPETTPRP | 0.461
RRIRSRPPRLPRPRPRPEVAPRP | 0.102
RRIRSRPPRLPRPRPRPEVFPRP | 0.0779
RRIRSRPPRLPRPRPRPEVPPRP | 0.0326
RRIRSRPPRLPRPRPRPEVQPRP | -0.0242
RRIRSRPPRLPRPRPRPEWVPRP | 0.146
RRIRSRPPRLPRPRPRPEYPPRP | -0.128
RRIRSRPPRLPRPRPRPFASPRP | 0.0202

Sequence | shrunken log2 fold change
RRIRSRPPRLPRPRPRPFAWPRP | -0.0248
RRIRSRPPRLPRPRPRPFCDPRP | -0.353
RRIRSRPPRLPRPRPRPFDMPRP | 0.394
RRIRSRPPRLPRPRPRPFETPRP | -0.101
RRIRSRPPRLPRPRPRPFGNPRP | -0.00151
RRIRSRPPRLPRPRPRPFGVPRP | -0.448
RRIRSRPPRLPRPRPRPFIQPRP | -0.0991
RRIRSRPPRLPRPRPRPFKAPRP | -0.0415
RRIRSRPPRLPRPRPRPFPSPRP | -0.168
RRIRSRPPRLPRPRPRPFRDPRP | -0.123
RRIRSRPPRLPRPRPRPFRKPRP | -0.176
RRIRSRPPRLPRPRPRPFSAPRP | -0.259
RRIRSRPPRLPRPRPRPFSHPRP | -0.388
RRIRSRPPRLPRPRPRPFSMPRP | -0.0498
RRIRSRPPRLPRPRPRPFTFPRP | -0.189
RRIRSRPPRLPRPRPRPFVTPRP | -0.0434
RRIRSRPPRLPRPRPRPFWNPRP | -0.139
RRIRSRPPRLPRPRPRPFWPPRP | 0.315
RRIRSRPPRLPRPRPRPFWTPRP | 0.131
RRIRSRPPRLPRPRPRPFYIPRP | -0.608
RRIRSRPPRLPRPRPRPFYWPRP | -0.0331
RRIRSRPPRLPRPRPRPGDLPRP | -0.091
RRIRSRPPRLPRPRPRPGEDPRP | 0.106
RRIRSRPPRLPRPRPRPGEKPRP | -0.000687
RRIRSRPPRLPRPRPRPGFLPRP | 0.078

Sequence | shrunken log2 fold change
RRIRSRPPRLPRPRPRPGFYPRP | -0.312
RRIRSRPPRLPRPRPRPGGKPRP | 0.0269
RRIRSRPPRLPRPRPRPGHVPRP | 0.1
RRIRSRPPRLPRPRPRPGIAPRP | 0.409
RRIRSRPPRLPRPRPRPGKDPRP | 0.099
RRIRSRPPRLPRPRPRPGKQPRP | 0.00846
RRIRSRPPRLPRPRPRPGLDPRP | 0.127
RRIRSRPPRLPRPRPRPGLTPRP | 0.264
RRIRSRPPRLPRPRPRPGNLPRP | -0.0533
RRIRSRPPRLPRPRPRPGNYPRP | -0.0556
RRIRSRPPRLPRPRPRPGPTPRP | 0.788
RRIRSRPPRLPRPRPRPGQVPRP | -0.0247
RRIRSRPPRLPRPRPRPGRDPRP | 0.255
RRIRSRPPRLPRPRPRPGRNPRP | -0.225
RRIRSRPPRLPRPRPRPGRPPRP | 0.245
RRIRSRPPRLPRPRPRPGSRPRP | 0.297
RRIRSRPPRLPRPRPRPGTKPRP | 0.108
RRIRSRPPRLPRPRPRPGVLPRP | 0.0866
RRIRSRPPRLPRPRPRPGWCPRP | 0.0616
RRIRSRPPRLPRPRPRPGWIPRP | 0.0994
RRIRSRPPRLPRPRPRPGYAPRP | 0.111
RRIRSRPPRLPRPRPRPGYYPRP | -0.457
RRIRSRPPRLPRPRPRPHCMPRP | -0.344
RRIRSRPPRLPRPRPRPHDPPRP | -0.0194
RRIRSRPPRLPRPRPRPHDRPRP | -0.138
